Results: paper PMC2958096
Like-named read-outs stand apart in the source and are kept apart here.

Key:
SUD-M [1] = molecular target: T1, SUD-M (SARS-CoV, UniProt P0C6U8 1345-1469); experiment: EMSA
SUD-C [2] = molecular target: T2, SUD-C (SARS-CoV, UniProt P0C6U8 1473-1538); experiment: EMSA
SUD-MC [3] = molecular target: T3, SUD-MC (SARS-CoV, UniProt P0C6U8 1345-1538); experiment: EMSA
SUD-M [4] = molecular target: T1, SUD-M
SUD-MC [5] = molecular target: T3, SUD-MC; experiment: NMR chemical shift perturbation
SUD-M [6] = molecular target: T1, SUD-M; experiment: NMR chemical shift perturbation
SUD-MC [7] = molecular target: T3, SUD-MC; experiment: EMSA; remark: listed apart in the source
SUD-MC [8] = molecular target: T3, SUD-MC; experiment: NMR chemical shift perturbation; remark: listed apart in the source
SUD-C [9] = molecular target: T2, SUD-C; experiment: NMR chemical shift perturbation
SUD-MC [10] = molecular target: T3, SUD-MC; experiment: NMR chemical shift perturbation; remark: listed apart in the source
SUD-M [11] = molecular target: T1, SUD-M; experiment: EMSA; remark: listed apart in the source
SUD-C [12] = molecular target: T2, SUD-C; experiment: NMR chemical shift perturbation; remark: listed apart in the source
SUD-MC [13] = molecular target: T3, SUD-MC; experiment: EMSA; remark: listed apart in the source
SUD-M [14] = molecular target: T1, SUD-M; experiment: EMSA; remark: listed apart in the source

GGGAGGGAGGGAGGGAGGGA (ssRNA) [(GGGA)5]
binding result (SUD-M [1]): binds
binding result (SUD-C [2]): no binding
binding result (SUD-MC [3]): binds

GUUCGUUUAG (ssRNA) [TRS(-)]
binding result (SUD-M [4]): no binding

GGAGGAGGAGGA (ssRNA) [(GGA)4]
binding result (SUD-MC [5]): binds
binding result (SUD-M [6]): binds

GGGAGGGAGG (ssRNA)
binding result (SUD-M [1]): binds
binding result (SUD-MC [7]): binds

AAAAAAAAAA (ssRNA) [A10]
binding result (SUD-MC [8]): binds
binding result (SUD-C [9]): binds

CUAAACGAAC (ssRNA) [TRS(+)]
binding result (SUD-M [4]): no binding
binding result (SUD-MC [10]): binds

GGGAGGGA (ssRNA)
binding result (SUD-M [11]): binds

GGGGGGGGGG (ssRNA) [G10]
binding result (SUD-C [12]): binds

ACUGACUGACUGACUGACUG (ssRNA) [(ACUG)5]
binding result (SUD-MC [13]): no binding
binding result (SUD-M [14]): binds
binding result (SUD-C [2]): no binding
